Experimental data: doi:10.1101/2024.12.05.626941
Each block holds one substance with its values, some of them ahead of it.

Assays:
Experiment in all cases: SEC
[1] = target: Physcomitrella patens adenosine kinase 2 (PpADK2) (Physcomitrella patens)
[2] = target: Zea mays adenosine kinase 1 (ZmADK1) (Zea mays)
[3] = target: Zea mays adenosine kinase 2 (ZmADK2) (Zea mays)
[4] = target: Zea mays adenosine kinase 3 (ZmADK3) (Zea mays)

stoichiometry N [1]: 2
Substance: Physcomitrella patens adenosine kinase 2 (PpADK2) (enzyme)

stoichiometry N [2]: 2
Substance: Zea mays adenosine kinase 1 (ZmADK1) (enzyme)

stoichiometry N [3]: 2
Substance: Zea mays adenosine kinase 2 (ZmADK2) (enzyme)

stoichiometry N [4]: 2
Substance: Zea mays adenosine kinase 3 (ZmADK3) (enzyme)
